Results on seven molecules are retold here after patent US20210087291A1 (Hoffmann-La Roche, published 2021).

Numbering of substitutions follows the chain as printed. Values joined by “and” are separate entries in the source; they are usually repeats but may differ in a detail not shown here. Equal entries are not always repeated.

Assay [1] addresses T1, Tim3-ECD-His-Biotin (human, UniProt Q8TDQ0 22-202).
T1 construct: also called human Tim3 (ELISA); Biochem Human
The assay can be described thus: ELISA, human Tim3.

The target of assay [2] is T2, human TIM-3 on cells (human, UniProt Q8TDQ0 22-301).
T2 construct: also called CHO-Tim3; rec CHOK1 cells expressing huTIM-3
Kind of assay: flow cytometry, human CD14+ monocytes donor2.
Excerpt: (§1) CD14+ Monocytes were isolated from anticoagulated peripheral blood of healthy donors by density gradient centrifugation using Ficoll-Paque (GE Healthcare) (see General Protocols in the User Manuals or visit www.miltenyibiotec.com/protocols) and subsequent positive selection via CD14 MicroBeads. First the CD14+ cells are magnetically labeled with CD14 MicroBeads. Then the cell suspension is loaded onto a MACS® Column which is placed in the magnetic field of a MACS Separator. The magnetically labeled CD14+ cells are retained in the column. The unlabeled cells run through, this cell fraction is depleted of CD14+ cells. After removal of the column from the magnetic field, the magnetically retained CD14+ cells can be eluted as the positively selected cell fraction. After centrifugation at 200×g for 10 min at room temperature the monocytes were harvested and used directly in binding assay or resuspended in freezing medium (10% DMSO, 90% FCS) at 1.0E+07 cells/ml and stored in liquid nitrogen.
(§2) 1×10⁵ CD14+ isolated human monocytes (50 μl/well) were put into 98 well-v bottom MTP in fresh culture medium and incubated with Redimune® NF Liquid for 15 min at RT to block unspecific binding. […] After washing and centrifugation MFI signals of stained cells were analyzed by BD Biosciences FACSCanto flow cytometer.

Assay [3] concerns the target T3, monomeric human Tim3-ECD (human, UniProt Q8TDQ0 22-202).
T3 construct: also called huTim3
Kind of assay: SPR Biacore, monovalent Tim3. Background: SPR reads the build-up and loss of mass on a sensor chip optically.
Description: (§3) Therefore, an anti-mouse IgG was immobilized by amine coupling to the surface of a (Biacore) CM5 sensor chip. The samples were then captured and hu/cy Tim3-ECD was bound to them. The sensor chip surface was regenerated after each analysis cycle. The equilibrium constant KD was finally gained by fitting the data to a 1:1 langmuir interaction model.
(§4) Flow cell temperature was set to 25° C. and sample compartment temperature to 12° C. The system was primed with running buffer. The samples were injected for 30 seconds with a concentration of 200 μg/ml and bound to the spots 1 and 5 of each flow cell, allowing the measurement of eight samples in parallel. Then a complete set of different (monomeric cyno, monomeric human and huFc fused dimeric human Tim3-ECD) concentrations (s. Table X) was injected over each sample for 240 s followed by a dissociation time of 30/1800 s (s. Table 1). Each analysis cycle (sample capture, spot 1 and 5—Tim3 ECD injection) was then regenerated with a 30 seconds long injection of Glycine-HCl pH 1.7. The flow rate was set to 30 μl/min for the whole run. Finally, the double referenced data was fitted to a 1:1 langmuir interaction model with the Biacore B4000 Evaluation Software.

The target in assay [4] is T1, Tim3-ECD-His-Biotin. Kind of assay: ELISA on Tim3-ECD-His-Biotin.
Description: After washing (3×90 μl/well with PBST-buffer) 25 μl aTim3 samples or diluted (1:2 steps) reference antibody aTim3 F38-2E2 (Biolegend) was added and incubated 1 h at RT. After washing (3×90 μl/well with PBST-buffer) 25 μl/well sheep-anti-mouse-POD (GE NA9310V) was added in 1:9000 dilution and incubated at RT for 1 h while shaking at 400 rpm rotation. After washing (4×90 μl/well with PBST-buffer) 25 μl/well TMB substrate (Calbiochem, #CL07) was added and incubated until OD 1.5-2.5. Then the reaction was stopped by addition of 25 μl/well 1N HCL-solution.
The target in assay [5] is T1, Tim3-ECD-His-Biotin. The assay can be described thus: ELISA, human Tim3; EC50 relative to the sample's max value. A general note: ELISA stands for enzyme-linked immunosorbent assay.
For assay [6], the target named is T4, huFc fused dimeric human Tim3-ECD (human, UniProt Q8TDQ0 22-202).
T4 construct: also called huTim3Fc; bivalent Tim3
Kind of assay: SPR Biacore, bivalent Tim3.
Description: as §3, §4

Assay [7] has as its target T5, cynomolgus TIM-3 on isolated cyno CD14+ monocytes (cynomolgus).
T5 construct: whole, on cells
The assay can be described thus: flow cytometry, cyno CD14+ monocytes cyno3. On the technique in general: In flow cytometry, cells or beads pass a laser one at a time.
Excerpt: (§5) CD14+ Monocytes were isolated from cynomolgus monkey anticoagulated peripheral blood (Covance) by density gradient centrifugation using Ficoll-Paque (GE Healthcare) (see General Protocols in the User Manuals or visit www.miltenyibiotec.com/protocols) and subsequent positive selection via NHP CD14 MicroBeads. First the CD14+ cells are magnetically labeled with CD14 MicroBeads. Then the cell suspension is loaded onto a MACS® Column which is placed in the magnetic field of a MACS Separator. The magnetically labeled CD14+ cells are retained in the column. The unlabeled cells run through, this cell fraction is depleted of CD14+ cells. After removal of the column from the magnetic field, the magnetically retained CD14+ cells can be eluted as the positively selected cell fraction. After centrifugation at 200×g for 10 min at room temperature the monocytes were harvested and used directly in binding assay or resuspended in freezing medium (10% DMSO, 90% FCS) at 1.0E+07 cells/ml and stored in liquid nitrogen.
(§6) 1×10⁵ CD14+ isolated cyno monocytes (50 μl/well) were put into 98 well-v bottom MTP in fresh culture medium and incubated with Redimune® NF Liquid for 15 min at RT to block unspecific binding. Than 50 μl/well of Alexa488 labeled anti-TIM3 (10 μg/ml in cell culture medium) were added and incubated for 1 h at 4° C. After washing and centrifugation MFI signals of stained cells were analyzed by BD Biosciences FACSCanto flow cytometer.

Assay [8] addresses T2, human TIM-3 on cells. The assay can be described thus: cell ELISA, CHO-Tim3.
Assay [9] concerns the target T2, human TIM-3 on cells. The assay can be described thus: flow cytometry, human CD14+ monocytes donor3.
A further assay addresses T6, monomeric cyno Tim3-ECD (cynomolgus, UniProt A0A2K5U3G7 22-195).
T6 construct: extracellular domain; also called cyTim3
T6 sequence: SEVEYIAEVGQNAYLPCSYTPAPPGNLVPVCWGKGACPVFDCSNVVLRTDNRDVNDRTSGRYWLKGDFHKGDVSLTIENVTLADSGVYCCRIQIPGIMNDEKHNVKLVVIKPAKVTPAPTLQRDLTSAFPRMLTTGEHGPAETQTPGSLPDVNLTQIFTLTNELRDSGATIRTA
The assay can be described thus: SPR Biacore, antibody captured by anti-mouse IgG.

Assay [10] addresses T3, monomeric human Tim3-ECD. The assay can be described thus: SPR Biacore, antibody captured by anti-mouse IgG.
Description: as §3, §4
The target of assay [11] is T4, huFc fused dimeric human Tim3-ECD. The assay can be described thus: SPR Biacore, antibody captured by anti-mouse IgG.
Description: as §3, §4
Assay [12] has as its target T2, human TIM-3 on cells. The assay can be described thus: flow cytometry, human CD14+ monocytes donor1.
Excerpt: as §1, §2
Assay [13] deals with T7, cynomolgus Tim3 (ELISA) (cynomolgus, UniProt A0A2K5U3G7 22-193).
T7 construct: also called Biochem Cyno; cyno TIM3
T7 sequence: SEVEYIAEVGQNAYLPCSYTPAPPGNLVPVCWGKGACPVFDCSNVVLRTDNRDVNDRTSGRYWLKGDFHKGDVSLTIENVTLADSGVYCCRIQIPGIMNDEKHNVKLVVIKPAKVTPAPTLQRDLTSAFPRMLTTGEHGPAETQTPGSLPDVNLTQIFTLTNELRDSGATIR
The assay can be described thus: ELISA, cyno Tim3; EC50 relative to the sample's max value.

Assay [14] deals with T5, cynomolgus TIM-3 on isolated cyno CD14+ …. Kind of assay: flow cytometry, cyno CD14+ monocytes cyno2.
Excerpt: as §5, §6
The target in assay [15] is T2, human TIM-3 on cells. The assay can be described thus: cell ELISA, CHO-K1 expressing human Tim3.
Description: Then the reaction was stopped by addition of 25 μl/well 1N HCL-solution.
In assay [16] the target is T7, cynomolgus Tim3 (ELISA). The assay can be described thus: ELISA, cyno Tim3.
Assay [17] concerns the target T5, cynomolgus TIM-3 on isolated cyno CD14+ …. Kind of assay: flow cytometry, cyno CD14+ monocytes cyno1.
Excerpt: as §5, §6
In assay [18] the target is T2, human TIM-3 on cells. Kind of assay: cell-based or functional assay.
For assay [19], the target named is T2, human TIM-3 on cells. Kind of assay: cell ELISA, CHO-Tim3; EC50 relative to the sample's max value.
In assay [20] the target is T8, human FolR3 ECD-AcTev-Fcknob-Avi tag + Fc hole, biotinylated monomeric Fc fusion (human, UniProt P0DOX5 223-449 = IgG part).
T8 construct: also called huFolR3; FolR3-Fc
The assay can be described thus: SPR, IgG single injection.

In assay [21] the target is T9, cynomolgus FolR1 ECD-AcTev-Fcknob-Avi tag + Fc hole, biotinylated monomeric Fc fusion (cynomolgus, UniProt P0DOX5 223-449 = IgG part).
T9 construct: also called cyFolR1; cyno FolR1-Fc
Kind of assay: SPR, IgG single injection.

Assay [22] deals with T10, human FolR2 ECD-AcTev-Fcknob-Avi tag + Fc hole, biotinylated monomeric Fc fusion (human, UniProt P0DOX5 223-449 = IgG part).
T10 construct: also called huFolR2; FolR2-Fc
Kind of assay: SPR, IgG single injection.

The target in assay [23] is T11, human FolR1 ECD-AcTev-Fcknob-Avi tag + Fc hole, biotinylated monomeric Fc fusion (human, UniProt P0DOX5 223-449 = IgG part).
T11 construct: also called huFolR1; huFolR1-Fc
The assay can be described thus: SPR, IgG single injection.

Assay [24] has as its target T8, human FolR3 ECD-AcTev-Fcknob-Avi tag + …. The assay can be described thus: SPR ProteOn, Fab analyte.
Description: (§7) Immobilization of antigens (ligand): Recombinant antigens were diluted with PBST (10 mM phosphate, 150 mM sodium chloride pH 7.4, 0.005% Tween 20) to 10 μg/ml, then injected at 30 μl/minute in vertical orientation. Injection of analytes: For ‘one-shot kinetics’ measurements, injection direction was changed to horizontal orientation, two-fold dilution series of purified Fab (varying concentration ranges) were injected simultaneously along separate channels 1-5, with association times of 150 or 200 s, and dissociation times of 200 or 600 s, respectively. Buffer (PBST) was injected along the sixth channel to provide an “in-line” blank for referencing. Association rate constants (kₒₙ) and dissociation rate constants (koff) were calculated using a simple one-to-one Langmuir binding model in ProteOn Manager v3.1 software by simultaneously fitting the association and dissociation sensorgrams. The equilibrium dissociation constant (KD) was calculated as the ratio koff/kₒₙ.
The target in assay [25] is T9, cynomolgus FolR1 ECD-AcTev-Fcknob-Avi …. The assay can be described thus: SPR ProteOn, Fab analyte.
Description: as §7
Assay [26] concerns the target T10, human FolR2 ECD-AcTev-Fcknob-Avi tag + …. Kind of assay: SPR ProteOn, Fab analyte.
Description: as §7
The target of assay [27] is T11, human FolR1 ECD-AcTev-Fcknob-Avi tag + …. Kind of assay: SPR ProteOn, Fab analyte.
Description: as §7
Assay [28] deals with T12, murine FolR1 ECD-AcTev-Fcknob-Avitag + Fc hole, biotinylated monomeric Fc fusion (murine, UniProt P0DOX5 223-449 = IgG part).
T12 construct: also called muFolR1; murine FolR1-Fc
The assay can be described thus: SPR ProteOn, Fab analyte.
Description: as §7

Description for monomeric cyno Tim3-ECD: as §3, §4

B1: Tim3_0016 variant (Tim3_0018) (antibody, V domains shown)
VH: QVTLKESGPGILQPSQTLSLTCSFSGFSLSTSGMSVGWIRQPSGKGLEWLAHIWLNDDVFFNPALKRRLTISKDTSNNQVFLQIASVVTADTATYYCVRANGYLYALDYWGQGISVTVSS
VL: QIVLTQSPAIMSASPGQKVTITCSASSSVNYTQWYQQKLGSSPKLWIYDAFKLAPGVPARFSGSGTGTSYSLTISSMEAEDAASYFCHQWSSYPWTFGGGTKLEIK
notes: also called TIM3-0016 variant (0018); aTim3 0018
By EC50 is commonly meant the concentration giving half of the maximal effect. High values mean lower potency in that assay, low ones higher potency in that assay. Regarding B1, the inflexion point in the assay with Tim3-ECD-His-Biotin [1] turned out to be 15.3 ng/mL; with human TIM-3 on cells [8], 29.4 ng/mL; in the assay with cynomolgus Tim3 (ELISA) [16], 14.6 ng/mL. Further, the “specific binding MFI” value with human TIM-3 on cells [2] was determined as 1820 MFI; with human TIM-3 on cells [9], 1940 MFI; with human TIM-3 on cells [12] it was 2330 MFI. The Kd with monomeric human Tim3-ECD [3] turned out to be 3.4 nM; in assay [6] it was 1.1 nM; with monomeric cyno Tim3-ECD, 41.9 nM; with monomeric human Tim3-ECD [10], 3.4 nM; in [11] it was 1.11 nM. For the same molecule, the EC50 in the assay with Tim3-ECD-His-Biotin [4] is 0.56 nM and 0.094 µg/mL; with Tim3-ECD-His-Biotin [5], 0.0161 µg/mL; in the assay with cynomolgus Tim3 (ELISA) [13], 0.0146 µg/mL; with human TIM-3 on cells [15], 0.52 nM and 0.087 µg/mL; with human TIM-3 on cells [19] it was 0.0264 µg/mL. Also, the MFI in [7] turned out to be 417 MFI; in [14] it was 480 MFI; in assay [17], 301 MFI. Moreover, the “IFN-gamma release in MLR at 1 µg/ml, % of IL-2 control” value in the assay with human TIM-3 on cells [18] is 12%. Moreover, in the assay with human TIM-3 on cells [18], the “IFN-gamma release in MLR at 10 µg/ml, % of IL-2 control” value is 30%. The “IFN-gamma release in MLR at 40 µg/ml, % of IL-2 control” value with human TIM-3 on cells [18] turned out to be 36%.

B2: Tim3_0016 (antibody, V domains shown)
VH: B1 VH with S19R, R67S, I114T
VL: B1 VL
notes: also called clone 0016
As to B2, the “specific binding MFI” value in the assay with human TIM-3 on cells [2] stood at 1630 MFI; with human TIM-3 on cells [9] it was 1690 MFI; with human TIM-3 on cells [12], 2120 MFI. Also, the MFI in [7] was determined as 187 MFI; in assay [14] it was 177 MFI; in assay [17] it was 157 MFI. Besides, the Kd with monomeric cyno Tim3-ECD stood at 21.6 nM. The “IFN-gamma release in MLR at 1 µg/ml, % of IL-2 control” value with human TIM-3 on cells [18] is 7%. Further, the “IFN-gamma release in MLR at 10 µg/ml, % of IL-2 control” value with human TIM-3 on cells [18] amounted to 22%.

B3: 14E4 IgG (antibody, V domains shown)
VH: not shown
VL: EIVLTQSPGTLSLSPGERATLSCRASQSVSSSYLAWYQQKPGQAPRLLIYGASSRATGIPDRFSGSGSGTDSTLTISRLEPEDFAVYYCQQPTSSPITFGQGTKVEIK
notes: human IgG1
As for B3, the binding result in assay [20], in assay [21], in assay [22] and in assay [23] was “no binding (tested: 500 nM)” throughout.

B4: 14E4 Fab (Fab, V domains shown)
VH: not shown
VL: B3 VL
Regarding B4, the binding result in assay [24], in assay [25], in assay [26] and in [27] was “no binding” throughout.

B5: Tim3_0022 (antibody, V domains shown)
VH: EVQLQESGPSLVKPSQTLSLTCSVTGDSIASAYWNWIRKFPGNKLEYMGYINYSGSTYYNPSLKSRISITRDTSQNQYYLQLNSVTTEDTATYYCVTGDYFDYWGRGTTLTVSS
VL: DIQMTQSPSSLSAYLGGKVTITCKARQDVRKNIGWYQHKPGKGPRLLIWYTSTLQSGIPSRFSGSGSGRDYSFNINNLEPEDIATYYCLQYDNLPFTFGTGTKLEIR
Consider B5, for which the “specific binding MFI” value with human TIM-3 on cells [2] stood at 1110 MFI; in the assay with human TIM-3 on cells [9], 1240 MFI; with human TIM-3 on cells [12], 1470 MFI. The MFI in assay [7] was determined as 138 MFI; in [14], 134 MFI; in assay [17], 115 MFI. The Kd with monomeric cyno Tim3-ECD came out at 28.4 nM; with monomeric human Tim3-ECD [10], 126 nM.

B6: 9D11 Fab (Fab, V domains shown)
VH: QVQLVQSGAEVKKPGASVKVSCKASGYTFTSYYMHWVRQAPGQGLEWMGIINPSGGPTSYAQKFQGRVTMTRDTSTSTVYMELSSLRSEDTAVYYCARGDFAWLDYWGQGTLVTVSS
VL: not shown
For B6, the binding result in assay [24], in assay [28] and in assay [26] was “no binding” throughout. The Kd turned out to be 5.29 nM in assay [25] and 8.64 nM in assay [27].

B7: 36F2 Fab (Fab, V domains shown)
VH: QVQLVQSGAEVKKPGASVKVSCKASGYTFTSYYMHWVRQAPGQGLEWMGIINPSGGSTSYAQKFQGRVTMTHDTSTSTVYMELSSLRSEDTAVYYCARSFFTGFHLDYWGQGTLVTVSS
VL: EIVLTQSPGTLSLSPGERATLSCRASQSVSSSYLAWYQQKPGQAPRLLIYGASSRATGIPDRFSGSGSGTDFTLTISRLEPEDFAVYYCQQYTNEHYYTFGQGTKVEIK
In the case of B7, the binding result in assay [24] and in [26] was “no binding” each time. In addition, the Kd in assay [28] stood at 737 nM; in [25] it was 1640 nM; in assay [27], 1810 nM.
